Data published in patent US9908923.

Biological target: CXCR4 (full-length receptor) (UniProt P61073)
Assay: cell-based or functional assay

Sequence of CXCR4 (full-length receptor) (P61073 whole entry): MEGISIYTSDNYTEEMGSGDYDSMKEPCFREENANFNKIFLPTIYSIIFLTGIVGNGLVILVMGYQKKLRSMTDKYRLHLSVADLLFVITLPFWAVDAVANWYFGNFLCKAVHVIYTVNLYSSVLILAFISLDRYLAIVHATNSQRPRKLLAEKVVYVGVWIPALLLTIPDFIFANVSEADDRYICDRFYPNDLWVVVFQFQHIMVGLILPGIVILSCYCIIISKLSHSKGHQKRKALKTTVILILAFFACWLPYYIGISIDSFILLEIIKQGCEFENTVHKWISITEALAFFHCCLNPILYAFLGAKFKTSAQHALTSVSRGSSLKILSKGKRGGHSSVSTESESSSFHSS

Row | Substance | calcium flux EC50 against unmutated CXCL12 [fold]
1 | CXCL12 Asn33 to alanine mutant (from UniProt P48061 22-89) (ligand) | 6
2 | CXCL12 Asn33 to arginine mutant (from UniProt P48061 22-89) (ligand) | 6
3 | CXCL12 Asn33 to glutamine mutant (from UniProt P48061 22-89) (ligand) | 6
